The source of these data is patent US20260139278A1, “SPECIFICITY OF CRISPR-TRANSPOSON SYSTEMS IN DNA MODIFICATION” (The Trustees of Columbia University in the City of New York, published 2026).

Series [1] deals with T1, TnsC (Scytonema hofmannii UTEX B 2349, Type V-K CAST, recombinantly purified, after TEV cleavage) (Scytonema hofmannii (UTEX B 2349)).
T1 construct: also called AAA+ ATPase; AAA+ regulator
T1 chain: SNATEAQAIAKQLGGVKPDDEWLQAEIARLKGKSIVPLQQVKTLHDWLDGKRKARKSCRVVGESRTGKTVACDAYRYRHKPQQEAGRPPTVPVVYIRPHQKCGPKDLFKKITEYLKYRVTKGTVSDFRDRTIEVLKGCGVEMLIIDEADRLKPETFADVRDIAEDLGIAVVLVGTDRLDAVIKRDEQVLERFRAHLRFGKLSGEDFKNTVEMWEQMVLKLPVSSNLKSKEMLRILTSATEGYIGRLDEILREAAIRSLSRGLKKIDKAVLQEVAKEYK
Kind of series: fluorescence polarization, TniQ (0-1 µM) titrated onto 55-bp FAM-labeled dsDNA preincubated with TnsC. Here is the method:
(§1) Fluorescence polarization. Fluorescence polarization was performed as reported earlier (Hoffmann, F. T. et al. Nature 609, 384-393 (2022). A 55 bp dsDNA labeled with a 5′ Fluorescein (6-FAM) tag on one of its strands was used for all fluorescence polarization experiments (Table 3). Recombinantly expressed TnsC (0-15 μM) was titrated with the FAM-labeled dsDNA in 1× binding buffer (20 mM HEPES pH 7.5, 2 mM MgCl₂, 200 mM NaCl, 10 μM ZnCl₂, 1 mM DTT) in the presence of 2 mM ATP or its analogs. The samples were incubated at 37° C. for 30 min in a 384-well plate. The fluorescence gain was adjusted to a sample lacking TnsC while keeping a requested polarization value of 60 mP. The error bar represents the standard deviation measured across two technical replicates. For low salt measurements, the concentration of NaCl was maintained at 50 mM.
(§2) For fluorescence polarization measurements for TniQ alone or its interaction with DNA bound to TnsC, TniQ (0-1 μM) was titrated and incubated for 30 min at 37° C. with fluorescently labeled DNA alone or DNA preincubated with […] (30 min at 37° C.). Experiments were conducted in a 1× binding buffer containing 50 mM NaCl in a 25 μL final volume.

Series [2] concerns the target T2, TnsC (Scytonema hofmannii UTEX B 2349, Type V-K CAST, recombinantly purified, after TEV cleavage).
T2 chain: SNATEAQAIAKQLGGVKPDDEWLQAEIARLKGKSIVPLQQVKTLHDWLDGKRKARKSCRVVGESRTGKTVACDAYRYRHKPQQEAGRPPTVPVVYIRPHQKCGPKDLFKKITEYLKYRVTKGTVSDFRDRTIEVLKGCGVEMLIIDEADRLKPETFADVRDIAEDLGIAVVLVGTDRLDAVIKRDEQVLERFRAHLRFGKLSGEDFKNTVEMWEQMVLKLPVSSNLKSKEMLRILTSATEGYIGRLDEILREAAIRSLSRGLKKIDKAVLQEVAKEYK

For a further series, the target named is T3, TnsC (ShCAST) (Scytonema hofmannii UTEX B 2349).
T3 chain: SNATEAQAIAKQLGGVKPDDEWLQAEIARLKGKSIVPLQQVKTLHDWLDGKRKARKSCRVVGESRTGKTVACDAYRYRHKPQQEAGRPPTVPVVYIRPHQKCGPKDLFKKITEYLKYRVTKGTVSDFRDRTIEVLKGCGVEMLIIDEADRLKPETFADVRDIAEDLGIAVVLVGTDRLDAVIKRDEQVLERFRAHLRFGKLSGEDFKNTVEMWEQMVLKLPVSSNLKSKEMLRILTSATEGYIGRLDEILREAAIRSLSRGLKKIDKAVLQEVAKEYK
The series can be described thus: FP; ATP-dependent at 200 mM NaCl; nucleotide-independent at 50 mM NaCl; 2 mM MgCl2, 37C. The conditions noted are these: tags: His6-SUMO-TEV cleaved (SNA N-terminal scar). Here is the method: as §1

For another series, the target named is T4, TniQ + TnsC (ShCAST) (Scytonema hofmannii UTEX B 2349).
T4 chain 1: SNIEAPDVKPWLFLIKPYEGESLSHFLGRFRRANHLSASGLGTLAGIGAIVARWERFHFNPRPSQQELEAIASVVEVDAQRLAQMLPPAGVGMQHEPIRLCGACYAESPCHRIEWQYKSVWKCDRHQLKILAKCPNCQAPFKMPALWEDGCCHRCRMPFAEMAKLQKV
T4 chain 2: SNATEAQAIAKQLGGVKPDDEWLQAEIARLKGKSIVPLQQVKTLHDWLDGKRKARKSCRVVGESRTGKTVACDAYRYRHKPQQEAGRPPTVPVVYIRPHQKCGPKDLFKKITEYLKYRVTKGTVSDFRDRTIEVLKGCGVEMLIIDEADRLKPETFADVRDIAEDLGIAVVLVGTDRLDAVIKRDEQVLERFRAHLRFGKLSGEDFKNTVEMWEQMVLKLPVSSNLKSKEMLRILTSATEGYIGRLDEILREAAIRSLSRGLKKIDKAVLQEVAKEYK
The series can be described thus: FP; TniQ titrated onto DNA preincubated with TnsC, 50 mM NaCl, 37C. Conditions: tags: His6-SUMO-TEV cleaved. As to the method: as §1, §2

B1: TniQ (Scytonema hofmannii UTEX B 2349, Type V-K CAST, recombinantly purified, after TEV cleavage) (other)
chain: SNIEAPDVKPWLFLIKPYEGESLSHFLGRFRRANHLSASGLGTLAGIGAIVARWERFHFNPRPSQQELEAIASVVEVDAQRLAQMLPPAGVGMQHEPIRLCGACYAESPCHRIEWQYKSVWKCDRHQLKILAKCPNCQAPFKMPALWEDGCCHRCRMPFAEMAKLQKV
notes: also called ShCAST TniQ; adaptor protein
As to B1, in series [1], the binding result is listed as “binds”.

B2: TnsB (Scytonema hofmannii UTEX B 2349, Type V-K CAST, recombinantly purified, after TEV cleavage) (protein)
chain: SNNSQQNPDLAVHPLAIPMEGLLGESATTLEKNVIATQLSEEAQVKLEVIQSLLEPCDRTTYGQKLREAAEKLNVSLRTVQRLVKNWEQDGLVGLTQTSRADKGKHRIGEFWENFITKTYKEGNKGSKRMTPKQVALRVEAKARELKDSKPPNYKTVLRVLAPILEKQQKAKSIRSPGWRGTTLSVKTREGKDLSVDYSNHVWQCDHTRVDVLLVDQHGEILSRPWLTTVIDTYSRCIMGINLGFDAPSSGVVALALRHAILPKRYGSEYKLHCEWGTYGKPEHFYTDGGKDFRSNHLSQIGAQLGFVCHLRDRPSEGGVVERPFKTLNDQLFSTLPGYTGSNVQERPEDAEKDARLTLRELEQLLVRYIVDRYNQSIDARMGDQTRFERWEAGLPTVPVPIPERDLDICLMKQSRRTVQRGGCLQFQNLMYRGEYLAGYAGETVNLRFDPRDITTILVYRQENNQEVFLTRAHAQGLETEQLALDEAEAASRRLRTAGKTISNQSLLQEVVDRDALVATKKSRKERQKLEQTVLRSAAVDESNRESLPSQIVEPDEVESTETVHSQYEDIEVWDYEQLREEYGF
As to B2, in series [2], the “ATP hydrolysis activity of TnsC (Malachite Green assay)” value is recorded as “TnsB stimulates the ATP hydrolysis activity of TnsC in a DNA-dependent reaction”; the “phosphate liberated (Malachite Green Phosphate Assay; TnsC 10 µM, TnsB 20 µM, dsDNA 10 µM, 1 mM ATP, 120 min at 37° C.)” value was “the sample containing TnsC, TnsB and dsDNA which liberated 174 µM of phosphate”.

B3: 55-bp FAM dsDNA (dsDNA)
DNA 1: GAGGAGGGCTGTTTTTACAAAATCCGGTAGTAACTTGCTAACCAATTCCTAGGCA
DNA 2: TGCCTAGGAATTGGTTAGCAAGTTACTACCGGATTTTGTAAAAACAGCCCTCCTC
Take B3: the binding result in the series with TnsC (ShCAST) and in the series with TniQ + TnsC (ShCAST) was “binds” throughout.
